T1: cynomolgus monkey SIRPγ on CHO cells (cynomolgus monkey, UniProt Q9P1W8 29-386 (human entry))
T1 construct: also called Cyno SIRPγ CHO
T1 chain: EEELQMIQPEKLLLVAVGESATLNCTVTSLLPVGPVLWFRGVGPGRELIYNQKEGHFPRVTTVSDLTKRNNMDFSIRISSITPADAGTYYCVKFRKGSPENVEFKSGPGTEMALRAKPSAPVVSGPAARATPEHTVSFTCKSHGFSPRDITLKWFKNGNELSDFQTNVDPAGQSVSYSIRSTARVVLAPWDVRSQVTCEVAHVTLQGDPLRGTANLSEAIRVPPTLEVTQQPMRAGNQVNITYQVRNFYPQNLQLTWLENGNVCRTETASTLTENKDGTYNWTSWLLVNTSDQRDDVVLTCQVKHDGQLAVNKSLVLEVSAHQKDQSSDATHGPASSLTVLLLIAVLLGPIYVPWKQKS

T2: cynomolgus monkey SIRPα on CHO cells (cynomolgus monkey, UniProt A0A2K5VYQ9 31-507)
T2 construct: whole, on cells; also called Cyno SIRPα CHO
T2 sequence: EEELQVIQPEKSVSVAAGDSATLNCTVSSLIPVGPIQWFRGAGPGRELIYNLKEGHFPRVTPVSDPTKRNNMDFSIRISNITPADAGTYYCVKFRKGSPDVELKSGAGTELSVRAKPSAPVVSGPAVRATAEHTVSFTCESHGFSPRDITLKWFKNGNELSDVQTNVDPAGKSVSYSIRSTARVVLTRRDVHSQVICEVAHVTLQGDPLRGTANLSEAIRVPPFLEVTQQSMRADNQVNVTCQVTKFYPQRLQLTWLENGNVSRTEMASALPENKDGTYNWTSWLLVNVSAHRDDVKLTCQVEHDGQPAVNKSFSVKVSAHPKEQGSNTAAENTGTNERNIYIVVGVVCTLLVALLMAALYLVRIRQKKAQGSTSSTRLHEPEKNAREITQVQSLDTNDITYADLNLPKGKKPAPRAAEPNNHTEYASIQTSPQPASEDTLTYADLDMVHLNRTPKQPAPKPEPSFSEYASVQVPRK

T3: cynomolgus monkey SIRPγ-His monomer protein (cynomolgus monkey, UniProt Q9P1W8 29-359 (human entry), limits assumed)
T3 construct: also called Cyno SIRPγ; Cyno SIRPγ-His
T3 chain: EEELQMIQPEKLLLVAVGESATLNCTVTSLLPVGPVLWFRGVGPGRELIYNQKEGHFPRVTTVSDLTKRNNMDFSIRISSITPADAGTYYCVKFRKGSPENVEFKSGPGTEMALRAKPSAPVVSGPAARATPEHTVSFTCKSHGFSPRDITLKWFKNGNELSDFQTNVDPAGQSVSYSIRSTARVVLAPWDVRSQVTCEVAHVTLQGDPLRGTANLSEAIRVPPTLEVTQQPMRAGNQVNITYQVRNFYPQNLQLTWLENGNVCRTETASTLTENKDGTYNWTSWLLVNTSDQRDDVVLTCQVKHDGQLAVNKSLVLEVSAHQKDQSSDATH

T4: Cynomolgus Monkey SIRPγ (plate-coated extracellular domain)
T4 construct: also called Cyno SIRPγ
T4 extracellular domain: T3 chain

B1: Antibody 84 (antibody, V domains shown)
VH: QVQLVQSGAEVKKPGASVKVSCKASGYTFTSYYMHWVRQAPGQGLEWMGWINPNSGNAGFAQKFQGRVTMTRDTSTSTVYMELSSLRSEDTAVYYCARGPVYSYGPFDYWGQGTLVTVSS
VL: DIQMTQSPSSLSASVGDRVTITCRASQGISTYLAWYQQKPGKAPKLLIYAASTLQSGVPSRFSGSGSGTDFTLTISSLQPEDFATYYCQQSHSAPITFGQGTKVEIK
B2: Antibody 22 (scFv, V domains shown)
VH: QVQLVQSGAEVKKPGASVKVSCKASGYTFTSHDINWVRQAPGQGLEWMGISNPSGGSTYYAQKFQGRVTMTRDTSTSTVYMELSSLRSEDTAVYYCASSRRYWNGAFDYWGQGTLVTVSS
VL: not shown
notes: scFv in crude PPE, V5/myc-tagged
B3: Antibody 6 (antibody, V domains shown)
VH: QVQLVQSGAEVKKPGASVKVSCKASGYTFTGYHIHWVRQAPGQGLEWMGWINPNSGGTNYAQKFQGRVTMTRDTSINTAYMELNRLRSDDTAVFYCARERVGYCSRPSCLDDLNIWGQGTMVTVSS
VL: DIQMTQSPSTLSASVGDRVTITCRASQSISSWLAWYQQKPGKAPKLLIYKASSLETGVPSRFSGSGSGTEFTLTISSLQPDDFATYYCQQYDSYYTFGQGTKLEIK
B4: Antibody 5 (antibody, V domains shown)
VH: B3 VH
VL: B3 VL
B5: Antibody 64 (antibody, V domains shown)
VH: QVQLVQSGAEVKKPGASVKVSCKASGYTFTSYYMHWVRQAPGQGLEWMGRINPNSGGTKYAQKFQGRVTMTRDTSTSTVYMELSSLRSEDTAVYYCARLGSAYFDLWGRGTLVTVSS
VL: DIQMTQSPSSLSASVGDRVTITCRASQSVDTWLAWYQQKPGKAPKLLIYEASTLESGVPSRFSGSGSGTDFTLTISSLQPEDFATYYCQQANSFPITFGQGTRLEIK
B6: Antibody 54 (antibody, V domains shown)
VH: QVQLVQSGAEVKKPGASVKVSCKASGYSFSDYYMHWVRQAPGQGLEWMGWMSPNSGNTGYAQKFQGRVTMTRDTSTSTVYMELSSLRSEDTAVYYCARQREEYGHYYYGMDVWGQGTMVTVSS
VL: EIVMTQSPATLSVSPGERATLSCRASQSLGSTYLAWYQQKPGQAPRLLIYGASTRATGIPARFSGSGSGTEFTLTISSLQSEDFAVYYCQQYYSSPPTFGQGTKVEIK
B7: Antibody 3 (antibody, V domains shown)
VH: QVQLVESGGGVVQPGRSLRLSCAASGFTFSNYGMHWVRQAPGKGLEWVAFIWYDGSNKNYADSVKGRFTISRDNPTNTLYLQMNSLRAEDTAVYYCAREEQWLDYWGQGTLVTVSS
VL: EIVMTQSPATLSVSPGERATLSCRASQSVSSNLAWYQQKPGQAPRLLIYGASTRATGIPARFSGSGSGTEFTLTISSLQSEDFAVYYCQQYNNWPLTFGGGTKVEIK
B8: Antibody 4 (antibody, V domains shown)
VH: B7 VH
VL: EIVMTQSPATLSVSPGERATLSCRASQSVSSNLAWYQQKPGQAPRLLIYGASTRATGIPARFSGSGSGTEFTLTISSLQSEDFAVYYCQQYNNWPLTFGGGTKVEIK

What was measured:
[1] = target: T5, extracellular binding domain of human SIRPγ (plate-coated) (human, UniProt Q9P1W8 29-360); test: competition ELISA, coated SIRPγ ECD, antibody 1 h then 10 µg/mL biotinylated CD47-Fc (blocked ligand), streptavidin-HRP
T5 construct: also called hSIRPγ
T5 sequence (Q9P1W8 29-360 limits assumed): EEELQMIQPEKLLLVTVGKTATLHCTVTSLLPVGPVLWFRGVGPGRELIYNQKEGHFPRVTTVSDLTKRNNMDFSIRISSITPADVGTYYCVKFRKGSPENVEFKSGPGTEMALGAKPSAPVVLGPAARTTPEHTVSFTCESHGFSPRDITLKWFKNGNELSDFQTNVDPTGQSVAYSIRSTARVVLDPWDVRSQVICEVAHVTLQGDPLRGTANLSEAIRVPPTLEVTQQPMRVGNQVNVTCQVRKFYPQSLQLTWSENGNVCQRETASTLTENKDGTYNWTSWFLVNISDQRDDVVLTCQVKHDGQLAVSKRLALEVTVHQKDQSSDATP
Experimental: To carry out the competition experiment, the extracellular binding domain of SIRPγ was coated onto a high protein-binding plate and blocked. A titration of each SIRPγ antibody was incubated on the plate for 1 hour. […] Following a wash, streptavidin-HRP was added. The plate was washed again and developed using a chemiluminescent substrate. The plate was read on a plate reader to assess luminescence. […] A known blocker antibody was used as a positive control.

[2] = target: T1, cynomolgus monkey SIRPγ on CHO cells; test: flow cytometry, CHO transfectants, anti-human IgG
Summary of the method: (§1)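 Flow cytometry on stable CHO transfectants; antibody titration; fluorescent anti-human IgG detection; MFI per concentration. myc-tagged scFv: crude PPE on SIRP-expressing CHO and parental CHO-K1; fold change <2.0 = non-binder.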

[3] = target: T6, human SIRPγ on stably transfected CHO cells (human, UniProt Q9P1W8 29-387); test: flow cytometry, CHO transfectants, anti-human IgG
T6 construct: also called Human SIRPγ CHO
T6 sequence (Q9P1W8 29-387 limits assumed): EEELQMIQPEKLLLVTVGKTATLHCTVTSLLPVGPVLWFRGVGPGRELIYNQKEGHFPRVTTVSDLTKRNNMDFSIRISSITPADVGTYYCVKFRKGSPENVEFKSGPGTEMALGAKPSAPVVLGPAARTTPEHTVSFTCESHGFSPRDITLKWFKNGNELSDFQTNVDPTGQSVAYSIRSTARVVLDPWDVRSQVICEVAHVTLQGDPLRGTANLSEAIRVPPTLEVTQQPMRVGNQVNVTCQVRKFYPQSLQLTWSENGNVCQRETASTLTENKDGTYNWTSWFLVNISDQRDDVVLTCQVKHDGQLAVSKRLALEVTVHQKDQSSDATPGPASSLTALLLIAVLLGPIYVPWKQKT
Summary of the method: as §1

[4] = target: T7, human SIRPβ1 on CHO cells (co-transfected with DAP12) (human, UniProt O00241 30-398); test: flow cytometry, CHO transfectants, anti-human IgG
T7 construct: whole, on cells; co-transfected with DAP12; also called Human SIRPβ1 CHO
T7 sequence (O00241 30-398): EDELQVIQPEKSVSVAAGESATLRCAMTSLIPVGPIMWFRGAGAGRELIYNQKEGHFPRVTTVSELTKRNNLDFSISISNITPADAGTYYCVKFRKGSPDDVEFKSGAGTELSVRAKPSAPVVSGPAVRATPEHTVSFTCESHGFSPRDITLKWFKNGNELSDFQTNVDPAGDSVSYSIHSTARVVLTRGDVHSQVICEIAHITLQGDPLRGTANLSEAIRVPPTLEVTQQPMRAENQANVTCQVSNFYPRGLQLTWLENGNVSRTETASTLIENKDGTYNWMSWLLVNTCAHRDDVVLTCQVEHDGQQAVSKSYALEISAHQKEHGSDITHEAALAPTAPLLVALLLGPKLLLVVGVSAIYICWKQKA
Summary of the method: as §1

[5] = target: T2, cynomolgus monkey SIRPα on CHO cells; test: flow cytometry, CHO transfectants, anti-human IgG
Summary of the method: as §1

[6] = target: T8, bivalent human SIRPγ protein with mouse Fc (human, UniProt Q9P1W8 29-360); test: BLI Octet, antibody on AHC, global 1:2 model
T8 construct: also called Human SIRPγ-mFc
T8 sequence (Q9P1W8 29-360 limits assumed): as the sequence (Q9P1W8 29-360 limits assumed) above
Experimental: (§2) Antibodies were coated onto anti-human Fc capture (AHC) biosensors. SIRP-His monomer protein or bivalent SIRP protein with mouse Fc at four concentrations (200 nM, 100 nM, 50 nM, 25 nM) were exposed to the biosensor to measure on-rate kinetics of SIRP antibodies binding to SIRP protein. The biosensors were then exposed to wash buffer to measure off-rate kinetics. The resulting kinetic data were analyzed and fitted using a global 1:2 binding model.

[7] = target: T3, cynomolgus monkey SIRPγ-His monomer …; test: BLI Octet, antibody on AHC, global 1:2 model
Experimental: as §2

[8] = target: T3, cynomolgus monkey SIRPγ-His monomer …; test: BLI Octet, captured scFv PPE, cyno SIRP
Summary of the method: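 Bio-layer interferometry used biotinylated anti-V5 on streptavidin sensors to capture V5-tagged scFv from crude periplasmic extract. Monomeric His-tagged SIRP protein at 500 nM was associated, then dissociated in wash buffer. Off-rate (kdis) was analyzed from the kinetic traces.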

[9] = target: T1, cynomolgus monkey SIRPγ on CHO cells; test: flow cytometry, myc-scFv PPE
Summary of the method: as §1

[10] = target: T6, human SIRPγ on stably transfected CHO …; test: flow cytometry, myc-scFv PPE
Summary of the method: as §1

[11] = target: human SIRPβ1-His monomer protein (human, UniProt O00241 30-371, limits assumed); test: BLI Octet, V5-scFv PPE captured, SIRP-His 500 nM
Chain of human SIRPβ1-His monomer protein (O00241 30-371 limits assumed): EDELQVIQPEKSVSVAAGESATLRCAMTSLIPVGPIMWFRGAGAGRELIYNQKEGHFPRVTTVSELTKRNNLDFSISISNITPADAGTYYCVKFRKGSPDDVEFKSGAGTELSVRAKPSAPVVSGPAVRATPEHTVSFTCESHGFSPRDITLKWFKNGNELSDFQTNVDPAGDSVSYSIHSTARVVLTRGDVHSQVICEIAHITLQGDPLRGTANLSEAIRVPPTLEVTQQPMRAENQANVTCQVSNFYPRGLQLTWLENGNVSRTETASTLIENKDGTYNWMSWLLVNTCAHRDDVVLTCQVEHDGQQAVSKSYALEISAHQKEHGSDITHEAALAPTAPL

[12] = target: T9, human SIRPγ-His monomer protein (human, UniProt Q9P1W8 29-360); test: BLI Octet, V5-scFv PPE captured, SIRP-His 500 nM
T9 construct: also called hSIRPγ
T9 sequence (Q9P1W8 29-360 limits assumed): as the sequence (Q9P1W8 29-360 limits assumed) above

[13] = target: T5, extracellular binding domain of human …; test: ELISA, coated SIRP ECD (2 µg/mL), anti-human IgG, luminescence
Summary of the method: (§3)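 Plate-coated SIRP extracellular domain (2 μg/mL), blocked, then exposed to purified antibodies in titration, after transient expression in Expi293F cells for 5 days and Protein A purification. Bound antibody is detected with anti-human IgG and a chemiluminescent substrate, and reported as relative luminescence units.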

[14] = target: T4, Cynomolgus Monkey SIRPγ (plate-coated …); test: as above
Summary of the method: as §3

[15] = target: T10, human SIRPγ on primary human T-cells (human, UniProt Q9P1W8 29-387); test: flow cytometry, dye-conjugated antibody, human whole blood (3 donors)
T10 construct: endogenous SIRPγ of donor T-cells; also called SIRPγ on T-cells
T10 sequence (Q9P1W8 29-387 limits assumed): as the sequence (Q9P1W8 29-387 limits assumed) above
Experimental: Selected antibodies and an isotype control were tested for binding to human T-cells, B-cells, NK cells, monocytes, and granulocytes. […] Up to 50 μg/mL fluorescent dye-conjugated antibodies or isotype controls were incubated with whole blood from three normal donors. T-cells were identified as the CD14−, CD20−, SSClow, and CD3+ population or further identified to be CD4+ or CD8+ populations. B-cells were identified as the CD14−, SSClow, and CD20+ population. NK cells were identified as CD14−, CD20−, CD3−, and CD56+. Monocytes were identified as the SSClow and CD14+ population. Granulocytes were identified as the CD14−, CD20−, CD3−, SSChigh population. Graphs depict the median fluorescence intensity (MFI) of each population.

[16] = target: T11, Human SIRPαV2 (plate-coated extracellular domain) (Homo sapiens, UniProt P78324); test: ELISA, coated SIRP ECD (2 µg/mL), anti-human IgG, luminescence
T11 construct: extracellular domain
T11 sequence (P78324 other isoform, or with tags, fused parts or gaps limits assumed): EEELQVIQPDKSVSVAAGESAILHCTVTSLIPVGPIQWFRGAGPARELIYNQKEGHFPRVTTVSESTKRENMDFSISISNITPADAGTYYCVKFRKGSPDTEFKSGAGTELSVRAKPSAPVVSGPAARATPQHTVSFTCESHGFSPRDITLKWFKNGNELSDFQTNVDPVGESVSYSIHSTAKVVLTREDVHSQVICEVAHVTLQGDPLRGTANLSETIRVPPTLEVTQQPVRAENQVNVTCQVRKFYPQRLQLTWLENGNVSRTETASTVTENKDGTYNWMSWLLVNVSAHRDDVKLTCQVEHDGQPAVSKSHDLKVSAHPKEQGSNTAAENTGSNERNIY
Summary of the method: as §3

Binder | IC50 (read off the curve) [1] | EC50 (read off the curve) [2] | EC50 (read off the curve) [3] | binding result [5] | EC50 (read off the curve) [13] | other results
B1 | ~0.2 µg/mL | ~0.2 µg/mL | ~0.2 µg/mL | no binding (tested: about 30 µg/mL) |  | binding result [4]: no binding (tested: about 30 µg/mL); Kd [6]: 2050 nM; Kd [7]: 34.1 nM
B2 |  |  |  |  |  | binding result [8]: binds; MFI fold change over parental CHO [9]: 8.24 fold; MFI fold change over parental CHO [10]: 3.17 fold; kdis [11]: < 0.001 s⁻¹; kdis [12]: < 0.001 s⁻¹
B3 |  |  |  |  | ~0.02 µg/mL | EC50 (read off the curve) [14]: ~0.1 µg/mL; EC50 (read off the curve) [15]: ~0.1 µg/mL
B4 |  |  |  |  | ~0.02 µg/mL | EC50 (read off the curve) [14]: ~0.07 µg/mL; EC50 (read off the curve) [15]: ~0.1 µg/mL
B5 | ~0.2 µg/mL | ~0.4 µg/mL | ~0.1 µg/mL | no binding (tested: about 20 µg/mL) |  | binding result [14]: binds
B6 | ~0.1 µg/mL | ~0.8 µg/mL | ~0.9 µg/mL | no binding (tested: about 20 µg/mL) |  | binding result [4]: no binding (tested: about 20 µg/mL)
B7 |  |  |  |  | ~0.1 µg/mL | binding result [16]: no binding (tested: about 40 µg/mL)
B8 |  |  |  |  | ~0.1 µg/mL | binding result [16]: no binding (tested: about 40 µg/mL)

— patent publication US20240400677A1 (ELECTRA THERAPEUTICS, published 2024)
